# B1: Parkin Ubl domain (ubiquitin-like domain), unmodified (domain or fragment)
# chain: MIVFVRFNSSYGFPVEVDSDTSIFQLKEVVAKRQGVPADQLRVIFAGKELQNHLTVQNCDLEQQSIVHIVQRPQRK
# modifications: not checked
# Molecular target: T1, Parkin R0RBR module (RING0, RING1, IBR, RING2), wild type (rat), Q9JK66
# T1 chain: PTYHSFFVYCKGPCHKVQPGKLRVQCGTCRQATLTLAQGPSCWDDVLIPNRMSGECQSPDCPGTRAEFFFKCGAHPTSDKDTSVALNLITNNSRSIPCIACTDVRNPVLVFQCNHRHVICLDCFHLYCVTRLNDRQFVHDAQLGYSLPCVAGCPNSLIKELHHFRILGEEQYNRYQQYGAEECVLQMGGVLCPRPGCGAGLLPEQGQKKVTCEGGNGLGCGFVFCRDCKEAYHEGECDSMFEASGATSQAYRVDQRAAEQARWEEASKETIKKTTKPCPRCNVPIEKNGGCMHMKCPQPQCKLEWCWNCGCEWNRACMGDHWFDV
# Experiment: ITC; R0RBR (wild type or L266K) titrated with Ubl or pUbl; 20°C; 50 mM Tris–HCl pH 7.4, 150 mM NaCl, 1 mM TCEP; stoichiometry determined experimentally
binder,measurement,value
B1,Kd,16 µM

# From paper PMC4609182
